Molecular target: the molecule itself
Test: cryo-EM structure

B1: Chikungunya virus non-structural protein 1 (nsP1) (enzyme)
chain: MDPVYVDIDADSAFLKALQRAYPMFEVEPRQVTPNDHANARAFSHLAIKLIEQEIDPDSTILDIGSAPARRMMSDRKYHCVCPMRSAEDPERLANYARKLASAAGKVLDRNISGKIGDLQAVMAVPDTETPTFCLHTDVSCRQRADVAIYQDVYAVHAPTSLYHQAIKGVRLAYWVGFDTTPFMYNAMAGAYPSYSTNWADEQVLKAKNIGLCSTDLTEGRRGKLSIMRGKKLEPCDRVLFSVGSTLYPESRKLLKSWHLPSVFHLKGKLSFTCRCDTVVSCEGYVVKRITMSPGLYGKTTGYAVTHHADGFLMCKTTDTVDGERVSFSVCTYVPATICDQMTGILATEVTPEDAQKLLVGLNQRIVVNGRTQRNTNTMKNYMIPVVAQAFSKWAKECRKDMEDEKLLGVRERTLTCCCLWAFKKQKTHTVYKRPDTQSIQKVQAEFDSFVVPSLWSSGLSIPLRTRIKWLLSKVPKTDLTPYSGDAQEARDAEKEAEEEREAELTLEALPPLQAAQEDVQVEIDVEQLEDRAGA
Q: For B1, which “stoichiometry N” value is on record?
A: 12

— publication doi:10.1101/2022.08.13.503841 (bioRxiv, 2022)
